T1: EcZapD E22R (residues 1-247) (E. coli, UniProt P36680 1-247, E22R)
T1 sequence: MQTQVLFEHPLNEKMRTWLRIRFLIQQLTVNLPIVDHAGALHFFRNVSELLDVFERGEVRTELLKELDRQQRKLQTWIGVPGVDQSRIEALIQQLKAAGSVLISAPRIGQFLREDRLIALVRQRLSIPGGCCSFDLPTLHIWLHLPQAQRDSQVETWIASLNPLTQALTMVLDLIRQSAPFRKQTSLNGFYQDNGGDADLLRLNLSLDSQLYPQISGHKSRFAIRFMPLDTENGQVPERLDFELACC

T2: EcZapD H140R (residues 1-247) (E. coli, UniProt P36680 1-247, H140R)
T2 sequence: T1 sequence with R22E, H140R

B1: EcZapD WT (residues 1-247) (natural protein)
chain: T1 sequence with R22E

Numbering of substitutions follows the chain as printed. Names may count otherwise.

The data set “SEC-MALS” concerns the molecule itself. Nature of the data set: SEC-MALS.
The target in data set [1] is B1. Nature of the data set: BLI.
Data set [2] has as its target T1, EcZapD E22R (residues 1-247). In words: BLI.
Data set [3] has as its target T2, EcZapD H140R (residues 1-247). In words: BLI.

Take B1: the “stoichiometry N” value in “SEC-MALS” is 2. In data set [1], KEPDYLDIPAFLRDQAD [GST-FtsZ_(367-383) K380D] had a dissociation constant (Kd) of 4.7 ± 0.5 µM. As for KEPDYLDIPAFLRKQAD [GST-FtsZ_(367-383)], the equilibrium dissociation constant (Kd) in data set [1] turned out to be 4.4 ± 0.5 µM; in data set [2] it was 68 ± 2.2 µM; in data set [3], 16 ± 1 µM. Regarding KEPDYLDIPAFLR [GST-FtsZ_(367-379)], the Kd in data set [1] was > 2000 µM.

The record behind these values is paper PMC5125937 (Molecules and Cells, 2016).
